Measured values reported in patent publication US20240141028A1 (RHODE ISLAND HOSPITAL, published 2024).

Biological target: T1, PfGARP aa 443-459 (…) (Plasmodium falciparum)
T1 construct: Stood on the microarray as overlapping 15-mer peptides, not as one 17-mer
Assay: microarray of overlapping 15-mer peptides
Source text: The peptides overlapped by a single amino acid and were printed in duplicate, framed by HA control peptides.
For epitope mapping, a custom 15-mer peptide microarray was designed and printed. […] The peptides overlapped by a single amino acid and were printed in duplicate, framed by HA control peptides. […] A duplicate array was probed with polyclonal, monospecific anti-PfGARP-A mouse antibodies (red).

B1: recombinant monoclonal anti-PfGARP (rec mAb7899) (antibody, V domains shown)
VH: EAQLQQSGTELVKPGASVKLSCTASGFYIKDTYIHWVRQRPVQGLEWIGRIDPANYDTKYDPKFQGKATITADTSSNTAYLQLINLTPEDTVVYYCTSFGGTKLRFAYWGQGTLVTVSA
VL: NIMMTQSPSSLAVSAGEEVTMSCKSSQSVLYSSNQRNYLAWFQQKSGQSPKLLIYWASTRESGVPDRFTGSGSGTDFTLTISNLQVEDLAVYYCLQHFSSWTFGGGTKLEIK
notes: also called recombinant mAb7899; recombinant mAb
binding result: binds
